From US20160060347A1 (MorphoSys, published 2016)
Where no end group is shown, it is not given here.

How the values were obtained:
human CXCR2 [1] = target: T1, human CXCR2 (human, UniProt P25025 1-360); experiment: FACS, CXCR2 CHO Flp-In cells, Fab
T1 construct: Expressed on Flp-In CHO cells (FACS, Fab-ZAP, ADCC, CDC) or on bought PathHunter CHO cells (beta-arrestin assay); the construct in the PathHunter cells is not described; also called chemokine receptor CXCR2; CXCR2 CHO Flp-In cells
T1 sequence: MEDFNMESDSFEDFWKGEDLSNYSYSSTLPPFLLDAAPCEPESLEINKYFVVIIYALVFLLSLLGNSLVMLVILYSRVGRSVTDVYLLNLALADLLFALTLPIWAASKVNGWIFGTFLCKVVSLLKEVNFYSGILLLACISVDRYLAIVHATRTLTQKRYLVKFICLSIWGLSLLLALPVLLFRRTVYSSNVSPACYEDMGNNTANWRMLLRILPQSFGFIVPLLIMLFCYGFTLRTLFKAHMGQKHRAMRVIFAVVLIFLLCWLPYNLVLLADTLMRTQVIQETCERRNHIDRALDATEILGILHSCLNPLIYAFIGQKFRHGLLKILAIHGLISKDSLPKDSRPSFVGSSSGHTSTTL
Protocol: (§1) Human CXCR2-expressing Flp-In™ CHO cells were harvested at ˜80% confluence washed once with PBS (Gibco, Cat #14190-094) and detached using Versene (Invitrogen, Cat #15040-033). Subsequently, cells were counted and centrifuged at 250×g for 5 min at 4° C. Afterwards, cells were diluted in Superblock (Thermo Fisher Perbio Science, Cat #37515) to a cell concentration of 2E+05-1E+06/mL and 100 μL/well were transferred to 96-well microtiter plate (Nunc, Cat#163320). Cells were once centrifuged, supernatant discarded and antibodies added at 1 μg/mL (unless stated otherwise), incubated for 1 h at 4° C. and washed twice with FACS buffer (PBS/3% FCS/0.02% NaN3). Binding of anti-CXCR2 antibodies was detected by incubation of Phycoerythrin-conjugated anti-human IgG (Dianova, Cat #109-116-097) for 1 h at 4° C. Samples were subsequently measured using FACS Array (Becton Dickinson).
(§2) The Fabs were further tested including affinity determination via BiaCore, EC₅₀ determination in ELISA and FACS, as well as the evaluation of cellular cytotoxicity via secondary immunotoxin (Saporin) upon antibody internalization (Fab-ZAP). Respective experimental settings as outlined in Example 3 were used.

[2] = target: T2, hu_CXCR2_N-term (1-17)-Trf (human, coupled to carrier protein human transferrin; C-terminal cysteine introduced to enable coupling); experiment: SPR (Biacore), peptide-TRF immobilized, Fab analyte, steady-state fit
T2 construct: Synthetic linear peptide chemically coupled to the carrier; also called CXCR2_aa1-17_TRF; N-terminal peptide aa1-17, Transferrin-coupled
T2 sequence (P02787 20-698 limits assumed): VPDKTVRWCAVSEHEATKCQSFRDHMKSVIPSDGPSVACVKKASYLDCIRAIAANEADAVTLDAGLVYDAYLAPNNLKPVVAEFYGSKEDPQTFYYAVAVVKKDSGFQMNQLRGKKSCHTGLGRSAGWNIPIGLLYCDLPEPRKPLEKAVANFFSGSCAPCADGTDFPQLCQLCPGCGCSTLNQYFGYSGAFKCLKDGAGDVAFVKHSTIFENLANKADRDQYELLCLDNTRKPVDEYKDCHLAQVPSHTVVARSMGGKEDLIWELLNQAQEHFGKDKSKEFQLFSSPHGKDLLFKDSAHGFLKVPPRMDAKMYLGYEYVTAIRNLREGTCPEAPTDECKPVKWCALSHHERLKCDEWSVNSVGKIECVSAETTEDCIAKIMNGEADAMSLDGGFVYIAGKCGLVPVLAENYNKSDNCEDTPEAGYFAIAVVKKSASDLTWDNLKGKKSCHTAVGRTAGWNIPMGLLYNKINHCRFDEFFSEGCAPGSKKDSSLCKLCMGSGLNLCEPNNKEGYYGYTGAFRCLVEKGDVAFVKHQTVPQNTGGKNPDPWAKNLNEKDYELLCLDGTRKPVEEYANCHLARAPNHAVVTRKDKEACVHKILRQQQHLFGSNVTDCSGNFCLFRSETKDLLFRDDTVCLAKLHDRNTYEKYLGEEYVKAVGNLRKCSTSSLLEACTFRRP
Protocol: (§3) Affinities (KD values) were determined using SPR (Biacore T200, GE Healthcare) using the following setup: The antigens (hu_CXCR2_N-term (1-17)-BSA, or hu_CXCR2_N-term (1-17)-Trf, respectively) were covalently coupled to a CM5 sensor chip using NHS/EDC chemistry. Antigens were diluted in 10 mM Acetate pH4.5 to a concentration of approx. 100 μg/mL. The final immobilization level was approx. 400 RU for the BSA-coupled peptide and 200 RU for the TRF-coupled peptide. HBS-EP pH7 was used as running buffer throughout the experiment at a flow rate of 30 μL/min. Fab fragments were used as samples (monomer portion at least 90% as determined by HP-SEC, Superdex 75 PC3.2/30 (GE Healthcare). Of each sample, a 2n serial dilution row from 31.25-1000 nM was prepared (6 concentrations) and injected, followed by a blank injection, which was later used for double referencing. Association of Fab samples was recorded for 240 s, and dissociation was monitored for 300 s. At the end of each cycle bound (Fab−) sample was removed from the sensor with one 30 s injection of MgCl2 (3M).
(§4) Most of the recorded binding curves deviated from the expected bimolecular binding model (1:1), but the sensorgrams seemed to reach equilibrium towards the late association phase. Therefore, the binding data (report point late association) was fitted to a steady state model. The Req vs. concentration plots/fits followed the assumed one-binding-site model, and the resulting KD were reported. EC50 values determined by ELISA were in the single digit nanomolar range on N-terminal CXCR2 peptides. […] Respective results of selected 6 Fabs are summarized in Table 1 (data of one representative experiments are shown).

[3] = target: T3, peptide derived of extracellular domain three (human, coupled to a carrier protein (BSA or transferrin, not stated which)); experiment: ELISA, Fab
T3 construct: also called ECL3 peptide
T3 peptide: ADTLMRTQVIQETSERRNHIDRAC
Protocol: (§5) 384-well Maxisorp plates (Nunc; Cat. #460518) were coated with respective CXCR2 and control peptides coupled either to BSA or Transferrin (TRF) at 1-5 μg/mL and incubated o/n at 4° C. […] After three washing steps, antibodies were added at 5-10 μg/mL and titrated in some experiments. Antibodies were incubated 1 h at room temperature and plates were subsequently washed. Binding of anti-CXCR2 antibodies was detected by using alkaline phosphatase-conjugated anti-human IgG, (Dianova, Cat #109-055-097). AttoPhos fluorescence substrate (Roche, Cat #1484281) was added according to instructions of the manufacturer and fluorescence was measured (excitation at 430 nm, emission at 535 nm) using a microplate reader.
as §2

[4] = target: T4, N-Terminal Peptide aa1-17 (Transferrin- or BSA-Coupled) (human, also: coupled to carrier protein (BSA or transferrin), site not given here); experiment: initial screening, Fab; carrier of the peptide not stated
T4 peptide: MEDFNMESDSFEDFWKGC

[5] = target: T2, hu_CXCR2_N-term (1-17)-Trf; experiment: ELISA, coated peptide-TRF, Fab
Protocol: as §5, §2

[6] = target: T5, hu_CXCR2_N-term (1-17)-BSA (human; bovine, coupled to carrier protein BSA; C-terminal cysteine introduced to enable coupling); experiment: ELISA, coated peptide-BSA, Fab
T5 construct: Synthetic linear peptide chemically coupled to the carrier; also called CXCR2_aa1-17_BSA; CXCR2 aa1-17 BSA
T5 sequence (P02769 25-607 limits assumed): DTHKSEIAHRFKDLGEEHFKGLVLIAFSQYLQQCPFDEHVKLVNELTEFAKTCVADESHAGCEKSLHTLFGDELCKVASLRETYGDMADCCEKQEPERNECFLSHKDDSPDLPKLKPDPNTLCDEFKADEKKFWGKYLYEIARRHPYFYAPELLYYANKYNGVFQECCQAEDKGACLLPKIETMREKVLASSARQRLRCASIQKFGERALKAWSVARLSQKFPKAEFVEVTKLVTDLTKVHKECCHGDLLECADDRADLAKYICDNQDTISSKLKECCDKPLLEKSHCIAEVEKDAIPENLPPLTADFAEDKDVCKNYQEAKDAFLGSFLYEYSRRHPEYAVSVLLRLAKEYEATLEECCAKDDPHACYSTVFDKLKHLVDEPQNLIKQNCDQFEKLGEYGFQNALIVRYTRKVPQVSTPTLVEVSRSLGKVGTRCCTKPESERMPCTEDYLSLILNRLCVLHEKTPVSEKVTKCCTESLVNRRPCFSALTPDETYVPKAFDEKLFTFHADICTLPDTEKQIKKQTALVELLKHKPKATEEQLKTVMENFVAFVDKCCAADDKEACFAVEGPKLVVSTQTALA
Protocol: as §5, §2

[7] = target: T5, hu_CXCR2_N-term (1-17)-BSA; experiment: SPR (Biacore), peptide-BSA immobilized, Fab analyte, steady-state fit
Protocol: as §3, §4

human CXCR2 [8] = target: T1, human CXCR2; experiment: FACS, CXCR2 CHO Flp-In cells, IgG1
Protocol: as §1

[9] = target: T6, ECL3 peptide aa273-295, BSA-coupled (human; bovine, coupled to carrier protein BSA; C-terminal cysteine introduced to enable coupling); experiment: ELISA, coated peptide-BSA, IgG1
T6 construct: also called CXCR2 aa273-295 BSA; peptides representing the extracellular domain 3
T6 sequence (P02769 25-607 limits assumed): as above
Protocol: as §5

[10] = target: T7, N-terminal peptide aa1-48, BSA-coupled (human; bovine, coupled to carrier protein BSA; C-terminal cysteine introduced to enable coupling); experiment: ELISA, coated peptide-BSA, IgG1
T7 construct: also called CXCR2 aa1-48 BSA
T7 sequence (P02769 25-607 limits assumed): as above
Protocol: as §5

[11] = target: T5, hu_CXCR2_N-term (1-17)-BSA; experiment: ELISA, coated peptide-BSA, IgG1
Protocol: as §5

Binder	EC50 (human CXCR2 [1]) [nM]	Kd [2] [nM]	binding result [3]	signal over background [4] [fold]	EC50 [5] [nM]	EC50 [6] [nM]	Kd [7] [nM]	binding result (human CXCR2 [8])	binding result [9]	binding result [10]	binding result [11]
CX2-Mab #1 (Fab format) (Fab, V domains shown) VH: QVQLVQSGAEVKKPGSSVKVSCKASGGTFSSYAISWVRQAPGQGLEWMGGIIPIVGEAKYAQKFQGRVTITADESTSTAYMELSSLRSEDTAVYYCARDSSGYDGYYAFAYWGQGTQVTVSS VL: DIVLTQPPSVSGAPGQRGTISCSGSSSNIGSSSVNWYQQLPGTAPKLLIYRNNQRPSGVPDRFSGSKSGTSASLAITGLQAEDEADYYCGATDFSANQVVFGGGTKLTVLG	365	269	no binding	≥ 5	1	6.1	534	–	–	–	–
CX2-Mab #4 (Fab format) (Fab, V domains shown) VH: EVQLLESGGGLVQPGGSLRLSCAASGFTFSSNGMSWVRQAPGKGLEWVSAISSSGSKTYYADSVKGRFTISRDNSKNTLYLQMNSLRAEDTAVYYCARGYGFDVWGQGTLVTVSS VL: DIVLTQPPSVSGAPGQRVTISCSGSSSNIGVNIVNWYQQLPGTAPKLLIYSTSNRPSGVPDRFSGSKSGTSASLAITGLQAEDEADYYCATRDGISKSVVFGGGTKLTVLG	136	101	no binding	≥ 5	0.4	0.8	143	–	–	–	–
CX2-Mab #2 (Fab format) (Fab, V domains shown) VH: QVQLVQSGAEVKKPGASVKVSCKASGYTFSRYAMHWVRQAPGQGLEWMGVINPYNGNTRYAQKFQGRVTMTRDTSISTAYMELSRLRSEDTAVYYCARGSHIQAGAFDYWGQGTLVTVSS VL: DIQMTQSPSSLSASVGDRVTITCRASQGINNRLNWYQQKPGKAPKLLIYDGSSLQSGVPSRFSGSGSGTDFTLTISSLQPEDFATYYCQQYIHFPVTFGQGTKVEIKR	> 6000	210	no binding	≥ 5	1.3	3.6	221	–	–	–	–
CX2-Mab #3 (Fab format) (Fab, V domains shown) VH: EVQLLESGGGLVQPGGSLRLSCAASGFTFSSYWMSWVRQAPGKGLEWVSVISYSGSETFYADSVKGRFTISRDNSKNTLYLQMNSLRAEDTAVYYCARGRVGYAFDYWGQGTLVTVSS VL: DIVLTQPPSVSGAPGQRVTISCSGSSSNIGVNYVNWYQQLPGTAPKLLIYSNNQRPSGVPDRFSGSKSGTSASLAITGLQAEDEADYYCQSRASGFYSVVFGGGTKLTVLG	105	317	no binding	≥ 5	2	4.7	393	–	–	–	–
CX2-Mab #3.1 (antibody, IgG1, V domains shown) VH: QVQLLESGGGLVQPGGSLRLSCAASGFTFSSYWMSWVRQAPGKGLEWVSVISYSGSETFYADSVKGRFTISRDNSKNTLYLQMNSLRAEDTAVYYCARGRVGYAFDYWGQGTLVTVSS VL: DIVLTQPPSVSGAPGQRVTISCSGSSSNIGVNYVNWYQQLPGTAPKLLIYSNNQRPSGVPDRFSGSKSGTSASLAITGLQAEDEADYYCQTRAVHFARVVFGGGTKLTVLG	–	–	–	–	–	–	–	binds	binds	binds	binds
CX2-Mab #5 (Fab format) (Fab, V domains shown) VH: EVQLLESGGGLVQPGGSLRLSCAASGFTFNSNAMSWVRQAPGKGLEWVSFISYSGSHTYYADSVKGRFTISRDNSKNTLYLQMNSLRAEDTAVYYCARYTRFLSRPAFDPWGQGTLVTVSS VL: DIVLTQPPSVSGAPGQRVTISCTGSSSNIGAGYDVHWYQQLPGTAPKLLIYYNSKRPSGVPDRFSGSKSGTSASLAITGLQAEDEADYYCGAYDRKMNSYVFGGGTKLTVLG	> 6000	149	no binding	≥ 5	0.5	0.6	146	–	–	–	–
CX2-Mab #6 (Fab format) (Fab, V domains shown) VH: EVQLLESGGGLVQPGGSLRLSCAASGFTFSSYTMSWVRQAPGKGLEWVSAIHSSGSSTYYADSVKGRFTISRDNSKNTLYLQMNSLRAEDTAVYYCARVPAYYGFDHWGQGTLVTVSS VL: DIELTQPPSVSVSPGQTASITCSGDSLGAFYVHWYQQKPGQAPVLVIYRTNNRPSGIPERFSGSNSGNTATLTISGTQAEDEADYYCASYASRNRVFGGGTKLTVLG	195	251	no binding	≥ 5	0.5	1.3	353	–	–	–	–
CX2-Mab #1.5 (antibody, IgG1, V domains shown) VH: QVQLVQSGAEVKKPGSSVKVSCKASGGTFSSYAISWVRQAPGQGLEWMGGIIPIVGEAKYAQKFQGRVTITADESTSTAYMELSSLRSEDTAVYYCARDSSGYDGYYAFAYWGQGTQVTVSS VL: DIVLTQPPSVSGAPGQRGTISCSGSSSNIGSSSVNWYQQLPGTAPKLLIYRNNQRPSGVPDRFSGSKSGTSASLAITGLQAEDEADYYCASTDSQWRQIVFGGGTKLTVLG	–	–	–	–	–	–	–	binds	binds	binds	binds
